Test system: hPARP2 poly(ADP-ribose) polymerase activity
Test: Poly(ADP-ribose) polymerase activity assay (32P-NAD+ incorporation, SDS-PAGE, autoradiography)
Type: biochemical, human
Details: 250 ng PARP1A/PARP2B or 25 ng FB-hPARP2, 10 min at room temperature, 2.5 μM unlabeled NAD+, E. coli Strain B DNA, gamma-[32P]-NAD+
Description: The PARP activity of hPARP2, or some substructure thereof, can be measured by the ability of that component to incorporate the ADP-ribose unit from NAD into polymers of ADP-ribose coupled to a protein substrate.
A fusion protein, designated PARP1A/PARP2B, containing aa 1–662 of hPARP1 (SEQ ID NO:25) fused upstream of aa 230–583 of hPARP2 (SEQ ID NO:2) was used in the measurement of hPARP2 poly(ADP-ribose) polymerase activity. PARP1A/PARP2B contained the DNA binding domain (aa 1–373 of SEQ ID NO:25) and automodification domain (aa 373–525 of SEQ ID NO:25) of hPARP1 and the putative catalytic domain of hPARP2 (aa […] of SEQ ID NO:2).
In addition to PARP1A/PARP2B, a full-length hPARP2 protein fused to a poly-His tag (FB-hPARP2) was constructed for use in the measurement of hPARP2 poly(ADP-ribose) polymerase activity. The construction of FB-hPARP2 was carried out as follows.
For poly(ADP-ribose) polymerase activity assays, reagents were obtained from Sigma, unless otherwise indicated. PARP1A/PARP2B (250 ng) or FB-hPARP2 (25 ng) protein was incubated for 10 min at room temperature in assay buffer (total volume of 20 μL) containing 100 mM Tris, pH 8.0, 1 mM MgCl2, 10% glycerol, 1.5 mM dithiothreitol (Boehringer Mannheim/Roche Molecular Biochemicals, Indianapolis, Ind.), 2.5 μM unlabeled NAD^+, 16.7 μg/mL E. coli Strain B DNA, and 0.33 μCi gamma-[^32P]-NAD^+ (NEN, Boston, Mass.). […]

Molecule	intrinsic poly(ADP-ribose) polymerase activity (ability to produce poly(ADP-ribose) polymers)
PARP1A/PARP2B: fusion protein containing aa 1–662 of hPARP1 fused upstream of aa 230–583 of hPARP2; His tag leader, Strep-tag (SEQ ID NO:47)	possessed intrinsic poly(ADP-ribose) polymerase activity
FB-hPARP2: full-length hPARP2 protein fused to a poly-His tag (SEQ ID NO:59) (protein, poly-His tag) MRGSHHHHHHDYDIPTTENLYFQGAMDPEFKGLRRPMAARRRRSTGGGRARALNESKRVNNGNTAPEDSSPAKKTRRCQRQESKKMPVAGGKANKDRTEDKQDGMPGRSWASKRVSESVKALLLKGKAPVDPECTAKVGKAHVYCEGNDVYDVMLNQTNLQFNNNKYYLIQLLEDDAQRNFSVWMRWGRVGKMGQHSLVACSGNLNKAKEIFQKKFLDKTKNNWEDREKFEKVPGKYDMLQMDYATNTQDEEETKKEESLKSPLKPESQLDLRVQELIKLICNVQAMEEMMMEMKYNTKKAPLGKLTVAQIKAGYQSLKKIEDCIRAGQHGRALMEACNEFYTRIPHDFGLRTPPLIRTQKELSEKIQLLEALGDIEIAIKLVKTELQSPEHPLDQHYRNLHCALRPLDHESYEFKVISQYLQSTHAPTHSDYTMTLLDLFEVEKDGEKEAFREDLHNRMLLWHGSRMSNWVGILSHGLRIAPPEAPITGYMFGKGIYFADMSSKSANYCFASRLKNTGLLLLSEVALGQCNELLEANPKAEGLLQGKHSTKGLGKMAPSSAHFVTLNGSTVPLGPASDTGILNPDGYTLNYNEYIVYNPNQVRMRYLLKVQFNFLQLW	possessed intrinsic poly(ADP-ribose) polymerase activity

Source: US6989260B2, “Human poly(ADP-ribose) polymerase 2 materials and methods” (ICOS Corporation, priority 1999, dated 2006)
